Experimental data reported in patent US20100204147A1, “Methods For Delivering Thymosin Beta 4, Analogues, Isoforms and Other Derivatives” (REGENERX BIOPHARMACEUTICALS, INC., priority 2003, published 2010).

Experiments:
fibrinogen = biological target: T1, fibrinogen (Homo sapiens, UniProt P02671); test: Solid-phase binding assay (ELISA), immobilized fibrinogen
T1 construct: purchased Enzyme Research Laboratories (South Bend, Ind.)
T1 sequence (P02671 20-644 isoform P02671-2 limits assumed): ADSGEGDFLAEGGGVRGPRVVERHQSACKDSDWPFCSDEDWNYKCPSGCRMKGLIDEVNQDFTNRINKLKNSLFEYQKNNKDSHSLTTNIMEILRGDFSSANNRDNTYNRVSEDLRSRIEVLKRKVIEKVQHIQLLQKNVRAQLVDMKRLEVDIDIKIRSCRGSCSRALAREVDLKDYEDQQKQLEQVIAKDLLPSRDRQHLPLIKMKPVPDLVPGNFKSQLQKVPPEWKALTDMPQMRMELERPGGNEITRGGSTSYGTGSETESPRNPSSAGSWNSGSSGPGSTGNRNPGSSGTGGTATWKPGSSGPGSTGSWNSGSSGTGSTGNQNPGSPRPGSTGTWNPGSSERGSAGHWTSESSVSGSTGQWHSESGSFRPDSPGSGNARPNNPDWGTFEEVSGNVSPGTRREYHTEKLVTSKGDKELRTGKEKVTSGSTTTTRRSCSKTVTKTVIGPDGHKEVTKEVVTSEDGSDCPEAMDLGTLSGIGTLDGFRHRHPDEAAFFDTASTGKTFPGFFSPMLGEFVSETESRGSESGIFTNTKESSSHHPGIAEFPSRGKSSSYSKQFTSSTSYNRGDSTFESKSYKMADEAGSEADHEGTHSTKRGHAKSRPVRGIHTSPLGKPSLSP
T1 sequence (P02675 31-491 partner): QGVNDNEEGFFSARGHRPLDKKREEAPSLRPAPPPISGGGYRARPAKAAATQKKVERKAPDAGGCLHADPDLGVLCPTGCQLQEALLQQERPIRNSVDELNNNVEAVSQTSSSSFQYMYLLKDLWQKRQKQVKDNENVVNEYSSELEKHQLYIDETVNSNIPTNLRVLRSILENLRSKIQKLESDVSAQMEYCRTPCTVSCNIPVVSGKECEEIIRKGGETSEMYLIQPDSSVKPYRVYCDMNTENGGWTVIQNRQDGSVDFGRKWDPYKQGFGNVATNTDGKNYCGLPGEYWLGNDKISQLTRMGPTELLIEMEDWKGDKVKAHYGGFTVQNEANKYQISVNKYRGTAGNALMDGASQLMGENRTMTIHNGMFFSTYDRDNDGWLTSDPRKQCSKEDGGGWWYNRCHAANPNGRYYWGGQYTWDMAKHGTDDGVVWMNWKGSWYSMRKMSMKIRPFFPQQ
T1 sequence (P02679 27-437 isoform P02679-2 partner limits assumed): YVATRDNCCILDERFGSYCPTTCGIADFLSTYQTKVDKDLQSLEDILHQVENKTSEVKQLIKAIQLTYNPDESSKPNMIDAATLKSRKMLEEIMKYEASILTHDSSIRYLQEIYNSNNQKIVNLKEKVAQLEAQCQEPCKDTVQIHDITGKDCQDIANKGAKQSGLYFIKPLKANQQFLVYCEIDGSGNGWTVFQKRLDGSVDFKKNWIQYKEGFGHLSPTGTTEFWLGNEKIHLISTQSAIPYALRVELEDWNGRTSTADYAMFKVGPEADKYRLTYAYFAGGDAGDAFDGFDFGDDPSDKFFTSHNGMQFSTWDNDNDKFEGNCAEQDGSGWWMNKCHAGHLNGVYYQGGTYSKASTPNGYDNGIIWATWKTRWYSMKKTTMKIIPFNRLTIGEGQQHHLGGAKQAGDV
Protocol: (§1) The interaction between thymosin β4 and fibrin(ogen) and its fragments in the presence or absence of FXIIIa was studies by ELISA using plastic microliter plates. Wells of microliter plates were coated overnight at […] with fibrinogen and fibrin at 10 μg/mL or with the recombinant fragments of 20 μg/ml, all in 0.1 M NaHCO3 buffer, pH 8.3. Fibrin was made by addition to the wells of a mixture containing 10 μg/mL fibrinogen 1 NIH u/ml thrombin and 400 u/ml aprotinin, followed by overnight incubation at +4° C. The wells were then blocked by incubation with Super Blocker (Pierce) at 37° C. for 1 h. Following washing with TBS containing 0.05% Tween-20 (TBS-Tween), the indicated concentrations of thymosin β4, FXIII, FXIIIa(Thr) and FXIIIa(Ca) were added to the wells and incubated for 2-2.5 h at 37° C. Bound (incorporated) thymosin β4 was detected by the reaction with rabbit anti-thymosin β4 serum and peroxidase-conjugated anti-rabbit IgG. A TMB Microwell Peroxidase Substrase was added to the wells, and the incorporated thymosin β4 was measured spectrophotometrically at 450 nm.

[1] = biological target: T2, recombinant γ-module (residues γ148-411) (Homo sapiens, UniProt P02679); test: ELISA and kinetic analysis of incorporation into immobilized γ-module; assay type: biochemical
T2 construct: comprising residues 148-411 of the human fibrinogen γ chain; made in house; host or cells: E. coli, pET20b expression vector
T2 sequence (P02679 174-437 isoform P02679-2): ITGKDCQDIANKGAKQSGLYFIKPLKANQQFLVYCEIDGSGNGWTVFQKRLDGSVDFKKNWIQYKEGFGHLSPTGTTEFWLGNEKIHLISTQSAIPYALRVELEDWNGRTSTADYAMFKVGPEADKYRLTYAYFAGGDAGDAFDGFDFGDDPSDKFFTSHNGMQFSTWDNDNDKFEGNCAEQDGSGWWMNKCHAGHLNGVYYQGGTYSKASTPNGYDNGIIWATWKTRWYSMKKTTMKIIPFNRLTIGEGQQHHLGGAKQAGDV
Protocol: as §1
To analyze kinetics of the incorporation of thymosin β4 into different fibrin(ogen) fragments, they were immobilized onto the wells of microliter plates (as described above, except that the concentration of all fragments was 20 μg/mL) and incubated with several concentrations of thymosin β4 in the presence of 10 μg/L thrombin-activated factor XIIIa. The incubation mixtures were inhibited every 15 min during 1 hour of incubation by the addition of iodacetamide to final concentration 10 mM. Incorporated thymosin β4 at each time point was detected with rabbit anti-thymosin β4 serum as described above. The initial rates of the reaction of incorporation (V) at different concentrations of thymosin β4 were determined from the slopes of the reaction time course plots and expressed as tangent α=A450/t (min), where A450 represents absorbance at 450 nm in optical units (o.u) which is proportional to the amount of incorporated thymosin β4. […]

factor XIIIa-mediated incorporation into immobilized fibrinogen (ELISA signal) (fibrinogen; factor XIII activated by CaCl2): the signal substantially increased
non-covalent interaction with immobilized fibrinogen (ELISA signal) (fibrinogen; thymosin β4 150 μg/mL (30 μm), absence of factor XIII or non-activated factor XIII): no significant non-covalent interaction
non-covalent interaction with γ-module (ELISA) ([1]; non-activated factor XIII or without it): no significant non-covalent interaction
incorporation into immobilized γ-module (ELISA) ([1]; presence of factor XIIIa): incorporated effectively
Km ([1]; thrombin-activated factor XIIIa, Lineweaver-Burk plot, read-out: apparent Michaelis constant (Km) for incorporation into the γ-module): 183 ± 29 µM
Substance: thymosin β4
